Measurements from patent US20180355003A1.

Experiments:
[1] = target: His-tagged IDO1 human recombinant protein (71182, BPS Biosciences) (UniProt P14902); experiment: ELISA
Human IDO1 = Human IDO1 (UniProt P14902); experiment: ELISA
Human IDO1, sequence (P14902 2-403): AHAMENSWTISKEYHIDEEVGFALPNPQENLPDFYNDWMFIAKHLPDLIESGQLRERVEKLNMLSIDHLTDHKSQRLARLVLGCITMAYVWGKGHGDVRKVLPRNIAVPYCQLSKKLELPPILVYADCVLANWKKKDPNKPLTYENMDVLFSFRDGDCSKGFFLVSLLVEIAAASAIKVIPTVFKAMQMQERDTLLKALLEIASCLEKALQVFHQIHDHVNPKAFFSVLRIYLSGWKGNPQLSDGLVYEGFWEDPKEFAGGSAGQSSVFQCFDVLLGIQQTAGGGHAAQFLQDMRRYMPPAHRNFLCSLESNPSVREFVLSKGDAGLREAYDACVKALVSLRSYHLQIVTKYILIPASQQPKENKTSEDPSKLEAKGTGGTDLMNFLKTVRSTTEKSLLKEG

His-tagged IDO1 human recombinant protein (71182, BPS Biosciences), sequence (P14902 2-403): as above

Row | Substance | EC50 [1] [nM] | EC50 (Human IDO1) [nM]
1 | Biotin-PEG3-Cy(nlf(Me-Trp)a) | 104 | –
2 | w--ray | – | 79
3 | ww(F-Phe) | – | 96
4 | yray | – | 113
